For 2 substances, SPR response and IC50 in thioflavin T aggregation assay (drug concentration, FKBP 1 uM) results are on record in patent US7923230.

One experiment concerns the target Amyloid beta (1-40). The experiment in a line: SPR (BIAcore); SLF-CR pre-incubated with FKBP passed over immobilized Aβ(1-40); SLF-CR alone gave ~140 RUs; ternary FKBP/drug/Aβ complex. (In SPR one partner is held on a chip, and binding of the other changes the refractive index at the surface.)
In another experiment the target is Amyloid beta (1-42). The experiment in a line: cell-based or functional assay.
Amyloid beta (1-42), sequence (peptide, as listed by the source): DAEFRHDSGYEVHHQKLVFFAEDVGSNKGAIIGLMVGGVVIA

Amyloid beta (1-40), sequence (peptide, as listed by the source): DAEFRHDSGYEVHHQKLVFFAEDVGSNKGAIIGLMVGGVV

In the experiment with Amyloid beta (1-40), “FKBP12 pre-incubated with the bifunctional compound SLF-CR (SLF-Congo red) (from UniProt P62942 2-108) (enzyme)” showed an SPR response of 230 RU. For the substance “FKBP12 with the bifunctional compound SLF-Benz-CR (from UniProt P62942 2-108) (enzyme)”, the IC50 in thioflavin T aggregation assay (drug concentration, FKBP 1 uM) with Amyloid beta (1-42) was 50 nM.
